41 sequences from the nanobody polyreactivity screen of Harvey et al. (2022) can be followed below.

The data set is described as follows: yeast display, Sf9 membrane polyspecificity reagent, FACS + sequencing; frameworks hold sequencing errors. Summed up:
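After 36–48 hours of galactose induction, yeast (Saccharomyces cerevisiae BJ5465) displaying a synthetic nanobody library were stained at 4 °C for 1 hour with 10% biotinylated, detergent-solubilized Sf9 membrane reagent. Streptavidin microbeads enriched the stained cells before FACS sorting into low and high (top ~1%) gates on anti-HA and streptavidin fluorescence. Each clone's polyreactivity label reflects its gate of origin.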
Turning to “QVQLVESGGGLVQEGGSLRLSCAASGRTFAIYTMGCYRQAPGKERELVATNSGSAGNTYYADSVKGRYTISRDNAKNTVYLQMNSLIPEDTAVYYCAARQRKSRQIVLLDYWGQGTQVTVSS”, the “polyreactivity (PSR sort gate)” value is “high polyreactivity”.
Consider “QVQLVESGGGLVQAGGSLRLICAASGITFTQYAMGWYRQAPGNEREFVAGITISGSSTYYADSVKGRFTISRDNAKNTVYLQMNRLKPEDTAVYYCAAGVRRVYASGHGAYGYWGQGTQVTVSS”, for which the “polyreactivity (PSR sort gate)” value was “low polyreactivity”.
“QVQHVESGGGLVQAGGSLRLSCAASGSIFNLYVMGWYRQAPGKERELVATISSGGSTNYADSVKGRFTISRDNAKNTVYLQMNSLKPEDTAVYYCAKPYIVYYSMDYWGQGTQVTVSS”: the “polyreactivity (PSR sort gate)” value is on record as “low polyreactivity”.
Take “QVQLVESGGGLVQAGGSLRLTCAASGFTFHVNTMGWYRQAPGKEMELVAAISWSGGSTYYADSVKGRFTISRDTAKKTVYLQMNSLNPEDTAVYYCNAVPVSYRGVYWGQGTQVTVSS”: the “polyreactivity (PSR sort gate)” value is recorded as “low polyreactivity”.
As for “QVQLVESGGGLVQAGGSLRLSSAASGSILWQYAMGWYRQAPGTERELVAAMTYSGGSTHYADSVKGRFTISRDNAKNTVYLQMNSLKPEDTAVYYCAAGYWYRYAALRYDHWGQGTQVTVSS”, the entry is “low polyreactivity”; as for “QVQLVESGGGLVQAGGSLRLSCAASGFTFGSNAMGWYRQAPGKEREFVAAISRSGSRTYYADSVKGRFTISRDNAKNTVYLQMNSLKPEDTAVYYCNARSGEISQRHMDYWGQGTQVTVSS”, “high polyreactivity”; as for “QVQLVESGGGLVQAGGSLRLSCAASGLTIWYYAMGWSRQAPGKEREFVAAITSRGGDTYYADSVKGRFTISRDNAKNTVYLQMNSLKPEDTAVYYCAVRPRYYGTYRYYYWGQGTQVTVSS”, “high polyreactivity”.
For the sequence “QVQLVESGGGLVQAGGSLRLSCAASGRIYLGNVMGWYRQAPGKERELVAAISWSAGSTYYSDSVKGRFTISRDNAKITVYLQMNSLKPEDTAVYYCAAVYLWWSYEFDYWGQGTQVTVSS”, the “polyreactivity (PSR sort gate)” value is given as “low polyreactivity”.
For “QVQLVESGGGLVQAGGSLRLSCAASGFISGFYGMGWYIQAPGKEREFVAAIDFIDGDTYYADSVKGRFTISRDKAKNTVYLQMNSLKPEDTAVYYCAADGSFCQFDYWGQGTQVTVSS”, the “polyreactivity (PSR sort gate)” value was “low polyreactivity”.
Consider “QVQLVESGGGLVQAGGSVRLSCAASGLIFTIYAMGWYRQAPGKERELVAVITWSGGSTYYADSVKGRFTISRDNAKNTVYLQMYSLKPEDTAVYYCAVEWAYPYWYTYYLEDYWGQGTQVTVSS”, for which the “polyreactivity (PSR sort gate)” value was “low polyreactivity”.
As for “QVQLVESGGGLVQAGGSLRLSCAASGIIFINYAMGWYRQAPGTERELVAVITRGGSTYYADSVKGRFTISRDNAKNTVYLQMNSLKPEDTAVYYCNARYLSWWTGRFNYWGQGTQVTVSS”, the “polyreactivity (PSR sort gate)” value is “high polyreactivity”.
Under “QVQHVESGGGLVQAGGSLRLSCAASGSTFTYNAMGWYRQAPGKEREKVASISSGTTTYYADSVKGRFTISRDNAKNTVYLQMNSLKPEDTAVYYCAVDSWSRVQGWLAHNYDYWGQGTLVTVSS” stands “low polyreactivity”; under “QVQLVESGGGLVQAAGSLRLSSAASGYTFYINAMGSYRQAPGKERELVATIRRRGGSTYYADSVKGRFTISRDNAKNTVYLQMNSLKPEDTAVYYCNADTLGGKYVYQYRRGFDYWGHGTQVTVSS”, “high polyreactivity”.
Take “QVQLVESGGGLVQAGGSLRLSCAASGITFYGYAMGWYRQAPGKEREFVAAISASGGSTYYADSVKGRFTISRDNAKNTVYLQMNSLKPEDTAVYYCAALVRGAYGYGYWGQGTQVTVSS”: the “polyreactivity (PSR sort gate)” value was “high polyreactivity”.
For the sequence “QVQLVESGGGLVQAGGSLRLSCAASGFIFRYYAMGWYRQAPGKERELVAAISKRGGGTYYADSVKGRFTISRDNAKNTVYLQMNSLKPEDTAVYYCNKDGGYGTGSSREYDSWGQGTQVTVSS”, the “polyreactivity (PSR sort gate)” value is “high polyreactivity”.
Turning to “QVQLVESGGGLVQAGGSLRLSCAASGLTFSFNAMGWYRQAPGKEREFVAAISWSGGSTYYADSVKGRFTISRDNAKITVYLQMNSLKPEDTAVYYCAAESRITRYRHTRYYYWGQGTQVTVSS”, the “polyreactivity (PSR sort gate)” value is given as “high polyreactivity”.
Consider “QVQLVESGGGLVQAGGSLRLSCAASGNILGYNAMGWYRQAPGKERELVAAISWIGGSTYYADSVKGRFTISRDNAKNTVYLQMNSLKPEDTAVYYCAARYRTYFTYEFWGQGTQVTVSS”, for which the “polyreactivity (PSR sort gate)” value is “low polyreactivity”.
As for “QVQLVESGVGLDQARVSLRLSCAASGFTFGQYVMGWYRQAPGKEREFVAIISRSVDSTYYADSVKGRFTISRDNAKNTVYLQMNSLNPEDTAVYYCNARGKRRGKIPYSSYASSYDSWGQGTQVTVSS”, the “polyreactivity (PSR sort gate)” value is listed as “high polyreactivity”.
Under “QVQLVESGGGLVQAGGSLRLSCAATGSIDSNALGWYRQAPGKERELVADITSGTPTYADSVKGRFTITRDNAKNTVYLQMNSLKPEDTAVYYCAADIPPWGGDYWGQGTQVTVSS” stands “low polyreactivity”; under “QDQLVESGGGLVQAGGSLRLSFAASGSIFGVNALGWYRQAPGKERELVAAISARGGSTYYADSVKGRFTISRDNAKNTVYLQMNSQKPEDTAVYYCAATFRARPRENYWGQGTQVTVSS”, “high polyreactivity”.
Under “QVQLVESGGGLVQAGGSLRLSCAASGRTFIGYAMGWYRQAPGKERELVAAISSRGGRTYYADSVKGRFTISRDNAKNTVYLQMNSLKPEDTAVYYCAAGRVKHSGYDYWGQGTQVTVSS” stands “high polyreactivity”; under “QVQLVESGGGLVQAGGSLRLSCAASGRTFDYYAMGWYRQAPGKERELVAAISSTGTSTYYGDSVKGRFTISRDNAKNTVYLQMNRLKPVDTAVYYCSAVSWYEYDYWGQGTQVSVSS”, “high polyreactivity”.
Consider “QVKLVDSGGGLVQAGGSVGLSCAASGRIFPWYTMGWYRQAPGKERELVAVISSGGRTHYADSVKGRFTISRDNAKNTVYLQMYSLNPEDTAVYDCAAESRYQRYDYWGQGTQVTVSS”, for which the “polyreactivity (PSR sort gate)” value was “high polyreactivity”.
Under “QVQLVESGGGLVQAGGSLRLSCAASGFTFYENAMGWYRQAPGKERELVATISYSGGTTYYADSVKGRFTISRDNAKNTVYLQMNSLKPEDTAVYYCNADYFYYGFPDDYWGQGTQVTVSS” stands “low polyreactivity”; under “QVQLVESGGGLVQAGGSLRLSCAASGSTILHYAMGWYRQAPGKEREFTYYADSVKGRFTISRDNAKNTVCLQMNSLTPEDTAVYYCNADPAVSGGSIATDEYDYWVQGTQVTVSS”, “low polyreactivity”; under “QVQLVESGGGLVQAGGSLRLSCAASGIIFTYYAMGWYRQAPGKERELVAAISVSGSSTYYADSVKARFTISRDYAKNTVYLQMNRLKPEDTAVYYCAVKQGFYSRALKLYYWGQGTQVTVSS”, “high polyreactivity”.
Turning to “QVQLVESGGGLVQAGGSLRLSCAASGNTFEYYVMGWYRQAPGKERELVAAITWSTGSTYYADSVKGRFTISRDNAKNTVYLQKNSLKPEDTAVYYCAALYYFIFGRPTRFDYWGQGTQVTVSS”, the “polyreactivity (PSR sort gate)” value is reported as “low polyreactivity”.
Under “QGQLVESGGGLVQAGGSLRLSCAASGRTLYYYAMGWYRQAPGKERELVASIDWDSGITDYADSVTGRFTISRANAKNTVYLQMNILTPEDTAVYYCAAVRVTKKYSYEYWGQGTQVTVSA” stands “low polyreactivity”; under “QVQLVESGGGLVHAGGSLRLSCAASGFIFDRYVMGWYRQAPGKERDLVAAINRSGGSTYYADSVKGRFTISRDNAKNTVYLQMNSLKPEDTAVYYCAADRAGSFTTMDYWGHGTQVTVSS”, “high polyreactivity”.
Take “QVQLVESGGGLVQAGGSLRLSCAASGRTFVYYAMGWYRQAPGKEREFVAAISRSGGRTSYADSVKGRFTISRDNAKNTVYLQMNSLKPEDTAVYYCAAEKRTQPSSREYYWGQGTQVTVSS”: the “polyreactivity (PSR sort gate)” value is recorded as “high polyreactivity”.
Regarding “QVQLVDSGGGLVQAGGRLRLSCAPSGLTFARNAMGWYIQAPGKERELVAAISRSGGRTSYADSVKGRFTISRDIAKNTVYVQMNSLKPVDTAVYYCAARSDVYSHDYWGQGTQVTVSS”, the “polyreactivity (PSR sort gate)” value was “high polyreactivity”.
As for “QVQLVESGGGLVQAGGSLRLSCAASGSTFHRYAKGSYRQAPGKERELVARIIGSGGSTYYADSVKGRFTISRDNAKNTVYLQMNSLKPEDTAVYYCAADGLYYTYGYDYWGQGTQVTVSS”, the entry is “low polyreactivity”; as for “QVQLVESGGGLVQAGGSLLLSCAASAFTSDVYAMGWYRQAPGKETELVADISARGGSTYYADSVKGRFTISRDNAKNTVYLQMNSLKPEDTAVYYCAAEVYVGTIGFYADFFYYPVYYWVQGTQVTVSS”, “low polyreactivity”; as for “QVQLVESGGGLVQAGGSLRLSCAASGSIFAENAMGCYRQAPGKERELVAAITRSGGSTYYADSVKGRFTISRDNAKNTVYLQMNSLKPEDTAVYYCAAREIASDDWGPDDYWGQGTQVTVSS”, “low polyreactivity”.
As for “QVQLVESGGGLVQAGGSLRLSCAASGSIFPLYDMGWYRQAPGKERELVAGITGSGGSSYYADSVKGRFTISRDNAKNTVYLQMNSLKPEDTAVYYCAADYSLYGWWFRNDYWGQGTQVTVSS”, the entry is “low polyreactivity”.
Under “QVQLVESGGGLVQEGGSLRLSCAASGSILGRYAMGWYRQAPGKERELVAAITSSGGRTYYADSVKGRFTISRDNAKNTVYLQMNSLKREDTAVYYCNAVSWWYGYDYWGQGTQVSVSS” stands “high polyreactivity”; under “QVQLVESGGGLVQAGGSLRLSCPASGSTFRYYAMGWYRQAPGKERELVAAISYRGGSTKYADSVKGRFTISRDNAKNTVYLQMNSLKPEDTAVYYCNTAPWWRTSSDYEYWGQGTQVTVSS”, “high polyreactivity”; under “QVQLVESGGGIVQAGGSLSLSCAASGFIIPSYTMGWYRQAPGKERDLVAGITQRGGSTYYADSVKGRFTISRDNAKNTVYLQMNSLNPEDTAVYYCARGISRGRSFGIGYDYWGQGTQVTLSS”, “low polyreactivity”.
Regarding “QVQLGESGRGLVQEGGSLGLICAASGGIFKYNAMGWYRQAPGKERELVAAIRSTGSTYADSVKGRFTISRDNAKNTVYLQMNSLKPEDTAVYYCAAQYWRRKKYYYWGQGTQVTVSS”, the “polyreactivity (PSR sort gate)” value is listed as “high polyreactivity”.
“QVQLVESGGGLVQAGGSLRLSCAASGSIFTVNAMGWYRQAPGKERELVATISVTGGSTYADSVKGRFTISRENAKNTVYLQMNSLKPEDTAVYYCAADKTVRWDFDYRGQGTQVTVSS”: the “polyreactivity (PSR sort gate)” value is “low polyreactivity”.
On to “QVQLVESGGGLVQAGGSLRLSCAASGSILSFYAMGWYRQAPGKERELVATISRRGGSTYYADSVKGRFTISRDNAKNTVYLQMNSLKPEDTAVYYCNKPGLSAWTQSSQYEYDYWGQGTQVTVSS”, for which the “polyreactivity (PSR sort gate)” value was “high polyreactivity”.
